{
  "source": "paper doi:10.1101/2025.05.02.651258",
  "about": "“The LOTUS domain of Oskar promotes localisation of both protein and mRNA components of Drosophila germ plasm” (bioRxiv, 2025)",
  "proteins": {"B1": {"name": "D. melanogaster Oskar LOTUS domain, residues 139-241 (Losk139–241), purified (domain or fragment)", "chain": "MTIIESNYISVREEYPDIDSEVRAILLSHAQNGITISSIKSEYRKLTGNPFPLHDNVTDFLLTIPNVTAECSESGKRIFNLKASLKNGHLLDMVLNQKERTSDLEVLFQ", "notes": "Oskar, D. melanogaster, LOTUS domain residues 139-241 (Losk139–241); numbers on the long isoform (1-606); remnant of the 3C protease cleavage site left at the C-terminus after removal of the decahistidine tag; Crystal form 4 was grown from HgCl2-derivatised protein; also called fly LOTUS domain; source: E. coli BL21(DE3), purified (Ni-NTA, 3C protease cleavage, gel filtration); not shown: His10, …"}},
  "key": {"[1]": {"target": "the molecule itself", "test": "SEC-MALS; Superdex 75 10/300 GL, 10 mg/mL, 20 mM Tris pH 8.0, 200 mM NaCl; data not shown"}, "[2]": {"target": "the molecule itself", "test": "SEC; analytical SEC, Superose 6 PC 3.2/30, 5.0 mg/mL, 20 mM Tris pH 8.0 with 200, 500 or 1000 mM NaCl, 0.05 mL/min; apparent molecular weight from gel filtration standards"}},
  "data": [
    {"protein": "B1", "values": [
      {"measurement": "stoichiometry N", "setting": "[1]", "value": 2},
      {"measurement": "stoichiometry N", "setting": "[2]", "value": "~2"}
    ]}
  ]
}
